Data from PMC6309448 (Nature, 2018).

T1: outer membrane usher FimD (Escherichia coli, UniProt P30130 46-878)
T1 sequence: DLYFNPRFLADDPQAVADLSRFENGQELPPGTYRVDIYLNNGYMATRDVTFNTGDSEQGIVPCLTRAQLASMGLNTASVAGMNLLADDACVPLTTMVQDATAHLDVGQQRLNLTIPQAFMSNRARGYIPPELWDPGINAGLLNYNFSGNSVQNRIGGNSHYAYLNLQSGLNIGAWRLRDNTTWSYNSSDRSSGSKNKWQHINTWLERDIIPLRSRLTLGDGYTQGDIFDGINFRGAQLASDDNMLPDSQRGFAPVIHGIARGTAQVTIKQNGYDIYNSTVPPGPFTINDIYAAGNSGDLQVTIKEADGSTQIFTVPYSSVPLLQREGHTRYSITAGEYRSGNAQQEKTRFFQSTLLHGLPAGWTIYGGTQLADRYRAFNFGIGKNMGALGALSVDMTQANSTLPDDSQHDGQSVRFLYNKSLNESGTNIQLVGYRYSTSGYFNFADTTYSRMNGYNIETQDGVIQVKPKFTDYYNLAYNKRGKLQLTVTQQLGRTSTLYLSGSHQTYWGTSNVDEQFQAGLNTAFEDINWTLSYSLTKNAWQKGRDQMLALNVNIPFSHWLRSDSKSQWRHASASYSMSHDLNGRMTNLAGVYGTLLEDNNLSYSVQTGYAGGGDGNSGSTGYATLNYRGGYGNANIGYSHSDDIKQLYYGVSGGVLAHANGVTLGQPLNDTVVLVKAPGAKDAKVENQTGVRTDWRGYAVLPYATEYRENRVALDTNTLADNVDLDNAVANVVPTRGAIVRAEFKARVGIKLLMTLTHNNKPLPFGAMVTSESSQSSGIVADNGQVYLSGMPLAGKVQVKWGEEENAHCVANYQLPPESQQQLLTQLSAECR

B1: FimC chaperone (natural protein)
chain: GVALGATRVIYPAGQKQEQLAVTNNDENSTYLIQSWVENADGVKDGRFIVTPPLFAMKGKKENTLRILDATNNQLPQDRESLFWMNVKAIPSMDKSKLTENTLQLAIISRIKLYYRPAKLALPPDQAAEKLRFRRSANSLTLINPTPYYLTVTELNAGTRVLENALVPPMGESTVKLPSDAGSNITYRTINDYGALTPKMTGVME
B2: pilus subunit FimG (natural protein)
chain: ADVTITVNGKVVAKPCTVSTTNATVDLGDLYSFSLMSAGAASAWHDVALELTNCPVGTSRVTASFSGAADSTGYYKNQGTAQNIQLELQDDSGNTLNTGATKTVQVDDSSQSAHFPLQVRALTVNGGATQGTIQAVISITYTYS

Molecular target: T1, outer membrane usher FimD
Experiment: cryo-EM structure

| Binder | binding result |
| --- | --- |
| B1 | binds |
| B2 | binds |
